This is an account of results in article PMC6049025.

The experiment concerns the target wild-type HCMV gB expressed in HEK293T cells (human cytomegalovirus (strain not stated)) (UniProt P06473). Nature of the experiment: far-Western, overlay or dot blot.
Sequence of UniProt P06473 (P06473 32-906): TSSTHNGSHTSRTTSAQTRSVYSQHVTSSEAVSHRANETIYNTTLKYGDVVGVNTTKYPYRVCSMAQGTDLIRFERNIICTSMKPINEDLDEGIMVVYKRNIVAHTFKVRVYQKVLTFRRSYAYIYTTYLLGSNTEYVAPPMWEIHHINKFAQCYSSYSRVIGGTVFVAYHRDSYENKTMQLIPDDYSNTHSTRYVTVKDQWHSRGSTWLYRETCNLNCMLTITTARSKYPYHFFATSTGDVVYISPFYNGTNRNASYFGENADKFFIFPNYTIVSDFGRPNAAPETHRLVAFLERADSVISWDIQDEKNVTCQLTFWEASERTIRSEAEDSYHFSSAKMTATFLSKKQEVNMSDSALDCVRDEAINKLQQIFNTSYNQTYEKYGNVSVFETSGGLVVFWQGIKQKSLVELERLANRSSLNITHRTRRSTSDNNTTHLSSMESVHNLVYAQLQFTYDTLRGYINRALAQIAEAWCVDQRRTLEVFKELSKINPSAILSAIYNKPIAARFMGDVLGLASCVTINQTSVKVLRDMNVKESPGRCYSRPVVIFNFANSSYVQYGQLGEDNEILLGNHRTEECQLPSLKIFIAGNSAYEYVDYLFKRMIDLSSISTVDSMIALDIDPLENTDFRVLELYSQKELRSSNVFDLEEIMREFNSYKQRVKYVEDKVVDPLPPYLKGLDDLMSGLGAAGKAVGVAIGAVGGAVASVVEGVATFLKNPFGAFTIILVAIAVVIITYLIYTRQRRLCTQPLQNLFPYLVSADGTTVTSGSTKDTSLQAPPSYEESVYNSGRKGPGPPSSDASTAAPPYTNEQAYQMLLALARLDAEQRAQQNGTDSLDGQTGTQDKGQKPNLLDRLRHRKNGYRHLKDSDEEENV

Sequence of DC-SIGN-Fc (Q9NNX6 59-404): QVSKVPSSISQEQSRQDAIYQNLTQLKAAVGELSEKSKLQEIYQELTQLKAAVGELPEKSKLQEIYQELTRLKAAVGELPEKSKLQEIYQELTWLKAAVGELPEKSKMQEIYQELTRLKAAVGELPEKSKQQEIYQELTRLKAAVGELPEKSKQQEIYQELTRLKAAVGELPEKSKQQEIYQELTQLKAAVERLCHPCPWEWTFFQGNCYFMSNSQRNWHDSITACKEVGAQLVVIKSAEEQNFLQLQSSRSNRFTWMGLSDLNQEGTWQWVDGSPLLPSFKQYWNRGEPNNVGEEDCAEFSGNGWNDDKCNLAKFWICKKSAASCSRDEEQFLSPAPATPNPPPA

As for “DC-SIGN-Fc (from UniProt Q9NNX6 59-404) (Fc fusion)”, the DC-SIGN-Fc binding normalized on gB expression (ratio) was 1.15.
